Measurements taken from US20230365640A1.
Values joined by “and” are separate entries in the source; they are usually repeats but may differ in a detail not shown here. Equal values may be shown once.

Target: recombinant SARS-CoV-2 RBD (His-tagged SARS-CoV-2 RBD fusion protein) (SARS-CoV-2), P0DTC2
Details: remark: other sources report otherwise

B1: DC-SIGN.Fc protein, Q9NNX6 59-404 (Fc fusion)
chain: QVSKVPSSISQEQSRQDAIYQNLTQLKAAVGELSEKSKLQEIYQELTQLKAAVGELPEKSKLQEIYQELTRLKAAVGELPEKSKLQEIYQELTWLKAAVGELPEKSKMQEIYQELTRLKAAVGELPEKSKQQEIYQELTRLKAAVGELPEKSKQQEIYQELTRLKAAVGELPEKSKQQEIYQELTQLKAAVERLCHPCPWEWTFFQGNCYFMSNSQRNWHDSITACKEVGAQLVVIKSAEEQNFLQLQSSRSNRFTWMGLSDLNQEGTWQWVDGSPLLPSFKQYWNRGEPNNVGEEDCAEFSGNGWNDDKCNLAKFWICKKSAASCSRDEEQFLSPAPATPNPPPA
Kd: 18.7 µM and 16.1 µM
koff: 0.000588 s⁻¹ and 0.000614 s⁻¹
kon: 339 M⁻¹ s⁻¹
